From ChEMBL document CHEMBL4261651, “Probing the ligand preferences of the three types of bacterial pantothenate kinase” (Bioorg Med Chem, 2018)

Assays:
[1] = compound: CC(C)(CO)[C@@H](O)C(=O)NCCC(=O)O; assay: (§1) Substrate activity at N-terminal His6-tagged Staphylococcus aureus PanK2 expressed in Escherichia coli BL21(DE3) cells assessed as Km in presence of ATP/NADH by pyruvate kinase/lactate dehydrogenase enzyme coupled assay
[2] = compound: CCCc1cn(CCCNC(=O)[C@H](O)C(C)(C)CO)nn1; assay: as §1
[3] = compound: CC(C)(CO)[C@@H](O)C(=O)NCc1cn(CCc2ccccc2)nn1; assay: as §1
[4] = compound: CCCCCc1cn(CCNC(=O)[C@H](O)C(C)(C)CO)nn1; assay: as §1
[5] = compound: CCCCCn1cc(CCNC(=O)[C@H](O)C(C)(C)CO)nn1; assay: as §1
[6] = compound: CCCCCn1cc(CNC(=O)[C@H](O)C(C)(C)CO)nn1; assay: as §1
[7] = compound: CCCCCNC(=O)CCNC(=O)[C@H](O)C(C)(C)CO; assay: as §1
[8] = compound: CCCCn1cc(CCNC(=O)[C@H](O)C(C)(C)CO)nn1; assay: as §1
[9] = compound: COC(=O)CNC(=O)[C@H](O)C(C)(C)CO; assay: as §1
[10] = compound: CC(C)(CO)[C@@H](O)C(=O)NCCCC(=O)O; assay: as §1
[11] = compound: CC(C)(CO)[C@@H](O)C(=O)NCCC(=O)O; assay: (§2) Substrate activity at N-terminal His6-tagged Staphylococcus aureus PanK2 expressed in Escherichia coli BL21(DE3) cells assessed as Kcat in presence of ATP/NADH by pyruvate kinase/lactate dehydrogenase enzyme coupled assay
[12] = compound: CCCc1cn(CCCNC(=O)[C@H](O)C(C)(C)CO)nn1; assay: as §2
[13] = compound: CC(C)(CO)[C@@H](O)C(=O)NCc1cn(CCc2ccccc2)nn1; assay: as §2
[14] = compound: CCCCCc1cn(CCNC(=O)[C@H](O)C(C)(C)CO)nn1; assay: as §2
[15] = compound: CCCCCn1cc(CCNC(=O)[C@H](O)C(C)(C)CO)nn1; assay: as §2
[16] = compound: CCCCCn1cc(CNC(=O)[C@H](O)C(C)(C)CO)nn1; assay: as §2
[17] = compound: CCCCCNC(=O)CCNC(=O)[C@H](O)C(C)(C)CO; assay: as §2
[18] = compound: CCCCn1cc(CCNC(=O)[C@H](O)C(C)(C)CO)nn1; assay: as §2
[19] = compound: COC(=O)CNC(=O)[C@H](O)C(C)(C)CO; assay: as §2
[20] = compound: CC(C)(CO)[C@@H](O)C(=O)NCCCC(=O)O; assay: as §2
[21] = compound: CC(C)(CO)[C@@H](O)C(=O)NCCC(=O)O; assay: (§3) Substrate activity at Pseudomonas aeruginosa PanK3 expressed in Escherichia coli BL21(DE3) cells assessed as Km in presence of ATP/NADH by pyruvate kinase/lactate dehydrogenase enzyme coupled assay
[22] = compound: O=C(O)CCNC(=O)[C@H](O)CCO; assay: as §3
[23] = compound: CC(C)(CO)[C@@H](O)C(=O)NCCCC(=O)O; assay: as §3
[24] = compound: CC(C)(CO)[C@@H](O)C(=O)NCCC(=O)O; assay: (§4) Substrate activity at Pseudomonas aeruginosa PanK3 expressed in Escherichia coli BL21(DE3) cells assessed as Kcat in presence of ATP/NADH by pyruvate kinase/lactate dehydrogenase enzyme coupled assay
[25] = compound: O=C(O)CCNC(=O)[C@H](O)CCO; assay: as §4
[26] = compound: CC(C)(CO)[C@@H](O)C(=O)NCCCC(=O)O; assay: as §4

B1: Type II pantothenate kinase (Staphylococcus aureus (strain MSSA476)), Q6G7I0 (protein)
chain: MKVGIDAGGTLIKIVQEQDNQRTFKTELTKNIDQVVEWLNQQQIEKLCLTGGNAGVIAENINIPAQIFVEFDAASQGLGILLKEQGHDLADYIFANVGTGTSLHYFDGQSQRRVGGIGTGGGMIQGLGYLLSQITDYKQLTDMAQHGDRNTIDLKVRHIYKDTEPPIPGDLTAANFGHVLHHLDADFTPSNKLAAVIGVVGEVVTTMAITVAREFKTENIVYIGSSFHNNALLRKVVEDYTVLRGCKPYYVENGAFSGAIGALYLEK
**Q.** Which Km [1] does the source give for B1 here?
**A.** 19 µM

**Q.** And the Km [2]?
**A.** 369 µM

**Q.** And the Km [3]?
**A.** 126 µM

**Q.** And the Km [4]?
**A.** 8.5 µM

**Q.** And the Km [5]?
**A.** 6.8 µM

**Q.** What about the Km [6] of the same protein?
**A.** 64 µM

**Q.** And the Km [7]?
**A.** < 1.5 µM

**Q.** What about the Km [8] of the same protein?
**A.** 7.1 µM

**Q.** What about the Km [9] of the same protein?
**A.** 36 µM

**Q.** What about the Km [10] of the same protein?
**A.** 60 µM

**Q.** And the kcat [11]?
**A.** 2.16 s⁻¹

**Q.** What about the kcat [12] of the same protein?
**A.** 7.6 s⁻¹

**Q.** And the kcat [13]?
**A.** 4.7 s⁻¹

**Q.** And the kcat [14]?
**A.** 0.82 s⁻¹

**Q.** And the kcat [15]?
**A.** 0.73 s⁻¹

**Q.** What about the kcat [16] of the same protein?
**A.** 3.4 s⁻¹

**Q.** What about the kcat [17] of the same protein?
**A.** 0.44 s⁻¹

**Q.** And the kcat [18]?
**A.** 0.82 s⁻¹

**Q.** What about the kcat [19] of the same protein?
**A.** 4 s⁻¹

**Q.** What about the kcat [20] of the same protein?
**A.** 3.4 s⁻¹

B2: Type III pantothenate kinase (Pseudomonas aeruginosa (strain ATCC 15692 / DSM 22644 / CIP 104116 /JCM 14847 / LMG 12228 / 1C / PRS 101 / PAO1)), Q9HWC1 (protein)
chain: MILELDCGNSLIKWRVIEGAARSVAGGLAESDDALVEQLTSQQALPVRACRLVSVRSEQETSQLVARLEQLFPVSALVASSGKQLAGVRNGYLDYQRLGLDRWLALVAAHHLAKKACLVIDLGTAVTSDLVAADGVHLGGYICPGMTLMRSQLRTHTRRIRYDDAEARRALASLQPGQATAEAVERGCLLMLRGFVREQYAMACELLGPDCEIFLTGGDAELVRDELAGARIMPDLVFVGLALACPIE
**Q.** What does the source list for B2?
**A.** Km [21]: 20 µM; Km [22]: 64 µM; Km [23]: 683 µM; kcat [24]: 0.39 s⁻¹; kcat [25]: 0.32 s⁻¹; kcat [26]: 0.98 s⁻¹
